Assays:
B7-H6 (human) = B7-H6 (human) (UniProt Q68D85); test: cell-based or functional assay
[1] = target: NKp30 ligands on human dendritic cells (iDCs and mDCs); test: cell-based or functional assay

Chain of UniProt Q68D85 (Q68D85 25-454): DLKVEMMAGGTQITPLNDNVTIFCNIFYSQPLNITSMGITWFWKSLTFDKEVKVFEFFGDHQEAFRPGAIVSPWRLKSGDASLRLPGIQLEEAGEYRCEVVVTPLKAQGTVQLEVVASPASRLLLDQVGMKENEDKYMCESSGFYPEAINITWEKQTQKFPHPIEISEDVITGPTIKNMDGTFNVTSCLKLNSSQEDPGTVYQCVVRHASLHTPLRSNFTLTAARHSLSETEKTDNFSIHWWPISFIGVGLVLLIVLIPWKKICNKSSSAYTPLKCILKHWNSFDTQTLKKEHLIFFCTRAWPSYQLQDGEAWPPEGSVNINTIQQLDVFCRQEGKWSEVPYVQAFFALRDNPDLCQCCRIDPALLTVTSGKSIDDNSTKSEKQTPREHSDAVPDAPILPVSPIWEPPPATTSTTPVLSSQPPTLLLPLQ

| specific lysis of RMA/B7-H6 cells by transduced mouse T cells, 5-h LDH release, E:T 1:1 (B7-H6 (human)) | IFN-γ production by transduced human T cells after 24 h coculture with iDCs or mDCs (5:1), ELISA [1] | Substance |
| --- | --- | --- |
| 80% | – | NKp30-CD3ζ chimeric receptor |
| 80% | 200 to 800 pg/mL | NKp30-CD28-CD3ζ chimeric receptor |

From patent publication US20150110760A1
